{
  "source": "paper PMC11751504",
  "key": {"[1]": {"biological_target": "SidF C-trim (residues 1-443) (Aspergillus fumigatus) (UniProt Q4WF55)", "assay": "SEC"}, "[2]": {"biological_target": "SidF C-trim (residues 1-443) (Aspergillus fumigatus) (UniProt Q4WF55)", "assay": "SAXS"}},
  "data": [
    {"substance": "SidF C-trim (residues 1-443) (from UniProt Q4WF55 1-443) (domain or fragment)", "values": [
      {"measurement": "stoichiometry N", "setting": "[1]", "result": 4},
      {"measurement": "stoichiometry N", "setting": "[2]", "result": 2}
    ]}
  ]
}
